{"source": "paper PMC11320570", "about": "(2024)", "assay_in_all_cases": "ELISA", "key": {"R2N_1G11": {"target": "R2N_1G11"}, "R3N_2D3": {"target": "R3N_2D3"}, "[1]": {"target": "T1, DENV-2 EDIII wild-type Fc-fusion antigen (dengue virus serotype 2 (DENV-2), …)", "T1 chain": "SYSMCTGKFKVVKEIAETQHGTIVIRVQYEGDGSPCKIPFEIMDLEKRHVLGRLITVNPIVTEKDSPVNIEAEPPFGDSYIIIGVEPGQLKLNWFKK"}, "[2]": {"target": "soluble E80 protein of DENV-3 (dengue virus serotype 3 (DENV-3))"}, "[3]": {"target": "soluble E80 protein of DENV-1 (dengue virus serotype 1 (DENV-1))"}, "[4]": {"target": "soluble DENV-2 envelope protein (D2E80) (dengue virus serotype 2 (DENV-2), …)"}}, "data": [{"binder": "soluble E80 protein of DENV-4 (domain or fragment) MRCVGVGNRDFVEGVSGGAWVDLVLEHGGCVTTMAQGKPTLDFELIKTTAKEVALLRTYCIEASISNITTATRCPTQGEPYLKEEQDQQYICRRDVVDRGWGNGCGLFGKGGVVTCAKFSCSGKITGNLVQIENLEYTVVVTVHNGDTHAVGNDIPNHGVTATITPRSPSVEVKLPDYGELTLDCEPRSGIDFNEMILMKMKKKTWLVHKQWFLDLPLPWAAGADTSEVHWNYKERMVTFKVPHAKRQDVTVLGSQEGAMHSALTGATEVDSGDGNHMFAGHLKCKVRMEKLRIKGMSYTMCSGKFSIDKEMAETQHGTTVVKVKYEGAGAPCKVPIEIRDVNKEKVVGRIISSTPFAEYTNSVTNIELEPPFGDSYIVIGVGDSALTLHWFRKG", "values": [{"measurement": "Kd", "setting": "R2N_1G11", "value": "> 67", "unit": "nM"}, {"measurement": "Kd", "setting": "R3N_2D3", "value": 0.32, "unit": "nM"}]}, {"binder": "2C8 mouse antibody (antibody, V domains shown) VH: EVKLVESGGGLVQPGGSLSLSCAASGFTFTDYYMTWVRQPPGKALEWLALIRNKASGYTTEYSASVKGRFTISRDNSQSILYLQMNALRAEDSATYYCTRAKWDGHYFDYWGQGTTLTVSS VL: DIQMTQSPASLSVSVGETVTITCRATKNIYNNLAWYQQKQGRSPQLLVYAATNLADGVPSRFSGSGSGTQFSLRINSLQSEDFGNYYCQHFWHTPWTFGGGTKLEIK", "values": [{"measurement": "Kd", "setting": "[1]", "value": 0.22, "unit": "nM"}]}, {"binder": "513 engineered and humanized antibody (antibody, V domains shown) VH: QVQLVQSGAEVKKPGASVKVSCKAGFNIKDVYMSWVRQAPEQGLEWMGRIDPENGDTKYDPKLQGRVTMTADTSTNTAYMELRSLRSDDTAVYYCARGWEGFAYWGQGTLVTVSS VL: DIVMTQSPASLAVSLGQRATISCRASENVDKYGNSFMHWYQQKPGQPPKLLIYRASELQWGVPDRFSGSGSGTDFTLTISSLQAEDVAVYYCQRSNEVPWTFGQGTKLEIK", "values": [{"measurement": "Kd", "setting": "[2]", "value": 0.46, "unit": "nM"}, {"measurement": "Kd", "setting": "[3]", "value": 0.054, "unit": "nM"}, {"measurement": "Kd", "setting": "[4]", "value": 0.087, "unit": "nM"}, {"measurement": "Kd", "setting": "[1]", "value": 0.066, "unit": "nM"}]}, {"binder": "2H12 mouse antibody (antibody, V domains shown) VH: DVQLVEPGAELVQPGASVKMSCKASGYTFSSYWINWEKQRPGKGLEWIGNIYPGSGTVNYDDKFKSKATLTIDTSSNTAYMQLSSLTSEDSAVYYCTRGGSHAMDYWGQGTSVTVSS VL: DIVMTQSQKFMSTSVGDRVSITCKASQNVRTSVAWYQQKPGQSPKALIYLASNRHTGVPDRFTGSGSGTDFTLTISNVQSEDLADYFCLQHWTYPYTFGGGTKLEIK", "values": [{"measurement": "Kd", "setting": "[1]", "value": 0.39, "unit": "nM"}]}, {"binder": "3H5 mouse antibody (antibody, V domains shown) VH: QVQLQQSGAEVARPGASVKLSCKASGYTFTSYWLQWVKQRPGQGLEWIGAIWPGDDDTRYAQKFQGKATMTADKSSSTAYIQLSNLASEDSAVYYCARKGGFAMDYWGQGTSVTVSS VL: NIVMTQSPTSLAVSLGQRATISCRASESVDSFGKSFMHFYQQKPGQPPKLLIHLASNLESGVPARFTGRGSRTDFTLTIDPVEADDAATYYCQQNNEVPFTFGSGTKLEVK", "values": [{"measurement": "Kd", "setting": "[1]", "value": 1.06, "unit": "nM"}]}]}
